Some targets named below: ANT 99; ANT 80; ANT 98.
Assay in all cases: BLI; avid
A general note: BLI is a label-free optical method that tracks binding on a fibre tip over time.

In US20260250398A1 (published 2026) one finds Kd data, which are given here for one molecule.

By Kd is commonly meant a measure of binding affinity in units of concentration.

B1: FZD5 (receptor)
chain: ASKAPVCQEITVPMCRGIGYNLTHMPNQFNHDTQDEAGLEVHQFWPLVEIQCSPDLRFFLCSMYTPICLPDYHKPLPPCRSVCERAKAGCSPLMRQYGFAWPERMSCDRLPVLGRDAEVLCMDYNRSEATTAPPRPFPAKP
Turning to B1, the Kd amounted to 0.4 nM with ANT 99, 0.05 nM with ANT 80 and 2 nM in the assay with ANT 98.
